Data on one molecule can be found in PMC5941314, “Structural insights into the nanomolar affinity of RING E3 ligase ZNRF1 for Ube2N and its functional implications” (Biochemical Journal, 2018).

What all share (details): both partners purified
Experiment [1] has as its target T1, Ube2N (UniProt P61088 1-152).
T1 construct: Ube2N, ubiquitin-conjugating enzyme E2 N; also called wtUbe2N; source: E. coli Rossetta2 (DE3), purified (ion exchange, SEC)
T1 sequence (looked up): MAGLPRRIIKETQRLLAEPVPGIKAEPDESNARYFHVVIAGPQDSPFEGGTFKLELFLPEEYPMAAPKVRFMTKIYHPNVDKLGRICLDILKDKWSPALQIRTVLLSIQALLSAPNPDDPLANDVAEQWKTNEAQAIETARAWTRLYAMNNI
As to the kind of experiment: ITC; ZNRF1^CTD in the cell, Ube2N in the syringe; 25°C; Na-phosphate pH 8.0, 300 mM NaCl; single site model.

The next experiment deals with T2, Ube2D2 (UniProt P62837 1-147).
T2 construct: Ube2D2, ubiquitin-conjugating enzyme E2 D2; also called wtUbe2D2; wild-type Ube2D2; source: E. coli Rossetta2 (DE3), purified (ion exchange, SEC)
As to the kind of experiment: ITC; ZNRF1 construct (10–30 µM) in the cell, E2 in the syringe; 25°C; 20 mM sodium phosphate pH 8.0, 150 mM NaCl; single site model.

A further experiment concerns the target T3, Ube2N/Ube2V1 complex (UniProt P61088 1-152; Q13404 1-147).
T3 construct: Ube2N, ubiquitin-conjugating enzyme E2 N; Ube2V1, ubiquitin-conjugating enzyme E2 variant 1; also called Ube2N/V1; source: E. coli Rossetta2 (DE3), each purified, mixed in stoichiometric amounts, complex isolated by SEC
Described as above.

The target in experiment [2] is T1, Ube2N. Described as above.
A further experiment deals with T4, Ube2N^R14A (UniProt P61088 1-152, R14A).
T4 construct: Ube2N, ubiquitin-conjugating enzyme E2 N, with R14A; source: E. coli Rossetta2 (DE3), purified (ion exchange, SEC)
T4 sequence (looked up): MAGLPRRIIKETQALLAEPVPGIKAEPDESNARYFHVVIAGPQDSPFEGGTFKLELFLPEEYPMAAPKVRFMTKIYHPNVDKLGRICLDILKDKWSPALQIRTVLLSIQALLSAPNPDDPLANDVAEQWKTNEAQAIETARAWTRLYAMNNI
The description is as above.

Another experiment has as its target T5, Ube2W (UniProt Q96B02 1-151).
T5 construct: Ube2W, ubiquitin-conjugating enzyme E2 W; source: E. coli Rossetta2 (DE3), purified (ion exchange, SEC)
The description is as above.

The target in another experiment is T6, Ube2N^R14E (UniProt P61088 1-152, R14E).
T6 construct: Ube2N, ubiquitin-conjugating enzyme E2 N, with R14E; source: E. coli Rossetta2 (DE3), purified (ion exchange, SEC)
T6 sequence (looked up): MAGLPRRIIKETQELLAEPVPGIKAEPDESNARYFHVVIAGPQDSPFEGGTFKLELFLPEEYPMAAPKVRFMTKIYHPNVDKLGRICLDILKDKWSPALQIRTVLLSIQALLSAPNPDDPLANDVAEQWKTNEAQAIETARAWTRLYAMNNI
The description is as above.

The target in a further experiment is T7, Ube2N^R14D (UniProt P61088 1-152, R14D).
T7 construct: Ube2N, ubiquitin-conjugating enzyme E2 N, with R14D; source: E. coli Rossetta2 (DE3), purified (ion exchange, SEC)
T7 sequence (looked up): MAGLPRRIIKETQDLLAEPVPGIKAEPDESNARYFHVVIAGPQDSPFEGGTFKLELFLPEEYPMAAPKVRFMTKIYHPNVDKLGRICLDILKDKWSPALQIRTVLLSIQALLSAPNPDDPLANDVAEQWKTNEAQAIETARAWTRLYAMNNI
Described as above.

For another experiment, the target named is T8, Ube2N^S96R (UniProt P61088 1-152, S96R).
T8 construct: Ube2N, ubiquitin-conjugating enzyme E2 N, with S96R; source: E. coli Rossetta2 (DE3), purified (ion exchange, SEC)
T8 sequence (looked up): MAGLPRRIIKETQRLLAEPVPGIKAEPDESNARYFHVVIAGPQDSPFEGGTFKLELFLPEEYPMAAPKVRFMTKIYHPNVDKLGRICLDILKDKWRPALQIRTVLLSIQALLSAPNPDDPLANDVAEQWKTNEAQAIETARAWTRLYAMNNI
The experiment is described as above.

The target in another experiment is T9, Ube2N^A98T (UniProt P61088 1-152, A98T).
T9 construct: Ube2N, ubiquitin-conjugating enzyme E2 N, with A98T; source: E. coli Rossetta2 (DE3), purified (ion exchange, SEC)
T9 sequence (looked up): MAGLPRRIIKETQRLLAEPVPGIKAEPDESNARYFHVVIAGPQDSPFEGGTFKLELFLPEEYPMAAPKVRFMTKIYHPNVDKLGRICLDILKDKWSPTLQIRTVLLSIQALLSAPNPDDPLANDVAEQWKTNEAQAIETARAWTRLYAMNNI
The experiment is described as above.

Experiment [3] addresses T1, Ube2N. As to the kind of experiment: ITC; ZNRF1^CTD in the cell, Ube2N in the syringe; 25°C; Na-phosphate pH 8.0, 450 mM NaCl; single site model.

T3 sequence (Q13404 whole entry, one chain of several): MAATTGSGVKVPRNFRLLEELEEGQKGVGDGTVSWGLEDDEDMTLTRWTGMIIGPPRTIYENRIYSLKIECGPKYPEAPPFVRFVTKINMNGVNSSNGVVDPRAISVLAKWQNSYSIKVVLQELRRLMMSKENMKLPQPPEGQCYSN

B1: ZNRF1^CTD (C-terminal domain of ZNRF1, residues 139–227) (domain or fragment, UniProt Q8ND25 139-227, looked up)
chain: SHSGFKCPICSKSVASDEMEMHFIMCLSKPRLSYNDDVLTKDAGECVICLEELLQGDTIARLPCLCIYHKSCIDSWFEVNRSCPEHPAD
notes: ZNRF1, RING E3 ubiquitin ligase, residues 139-227 of the full-length protein (ZnF and RING domains); also called ZNRF1 C-terminal domain; ZRNF1^CTD; source: E. coli Rossetta2 (DE3), purified (HisTrap, SEC)
On to B1, for which the Kd with Ube2N [1] was found to be 171 nM; with Ube2D2, 1130 nM; in the experiment with Ube2N/Ube2V1 complex, 39.2 nM; with Ube2N [2], 38.8 nM; with Ube2N^R14A it was 320 nM; with Ube2W, 1090 nM. Further, the Kd with Ube2N^R14E was determined as 1080 nM; with Ube2N^R14D, 948 nM; in the experiment with Ube2N^S96R, 203 nM; in the experiment with Ube2N^A98T, 408 nM; with Ube2N [3], 225 nM.
